Data as given in patent US20210246195A1 (CZ BIOHUB SF, published 2021).

target: T1, BSA (UniProt P02769 25-607); experiment: indirect ELISA heat map, hIgG subtracted
T1 construct: also called bovine serum albumin; immobilized BSA
T1 sequence (P02769 25-607 limits assumed): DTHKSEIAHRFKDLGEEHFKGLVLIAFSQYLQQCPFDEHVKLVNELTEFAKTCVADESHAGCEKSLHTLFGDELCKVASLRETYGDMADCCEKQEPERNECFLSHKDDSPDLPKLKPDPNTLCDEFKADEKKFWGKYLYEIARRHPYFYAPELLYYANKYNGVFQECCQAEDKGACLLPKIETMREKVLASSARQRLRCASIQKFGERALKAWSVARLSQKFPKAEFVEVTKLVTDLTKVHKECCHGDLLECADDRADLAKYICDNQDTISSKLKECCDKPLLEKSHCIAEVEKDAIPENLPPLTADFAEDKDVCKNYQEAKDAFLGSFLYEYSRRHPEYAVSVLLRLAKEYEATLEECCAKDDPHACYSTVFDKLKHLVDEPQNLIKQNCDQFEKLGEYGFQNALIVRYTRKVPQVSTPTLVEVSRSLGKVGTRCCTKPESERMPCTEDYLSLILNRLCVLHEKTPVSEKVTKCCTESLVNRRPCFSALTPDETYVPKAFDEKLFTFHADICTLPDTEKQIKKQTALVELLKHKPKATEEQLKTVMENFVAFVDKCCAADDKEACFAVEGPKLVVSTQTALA

Row | binding result | Binder
1 | no binding (tested: 2 ng/µL) | PA11P1G04 (antibody, human IgG1, V domains shown, human IgG1) VH: EVQLVESGGGLVQPGGSLRLSCAASGFTFSSYWMSWVRQAPGKGLEWVANIKQDGSEKDYVDSVKGRFTISRDNAKNSLYLQLNSLRAEDTAVYYCARERSTQSSSWYVSSYYSYYGMDVWGQGTTVTVSS VL: SSELTQDPAVSVALGQTVTITCQGDSLRSFYASWYQQKPGQAPVFVIYGKYNRPSGIPDRFSGSSSGNTASLTITGAQAEDEADYYCNSRDSSDNHLGVFGGGTKLTVL
2 | no binding (tested: 2 ng/µL) | PA12P4D02 (antibody, human IgG1, V domains shown, human IgG1) VH: QVQLVESGGGVVQPGRSLRLSCAASGFTFSSYAMHWVRQAPGKGREWVAALSYDGSSTYYADSVKGRLTISRDNSKNTLYLQMNSLRAEDTAVYFCTRVPYGEGRAANDYWGQGTLVTVSS VL: DIQMTQSPSTLSASVGDRVTITCRASQSIGSWLAWYQQKPGKAPKLLIYKASNIESGVPSRFSGSGSGTEFTLTISSLQPDDFATYYCQHYNTYSRSFGGGTEVAIK
3 | no binding (tested: 2 ng/µL) | PA11P1C03 (antibody, human IgG1, V domains shown, human IgG1) VH: EVQLVQSGGGLVKPGGSLRLSCAASGSTLTNYNINWVRQAPGKGLQWVSSISGTRDYTYYADSVVGRFTISRDNAKNSVYLQMNSLRAEDTAVYYCARGREVGGDYDSYDWGQGTLVTVSS VL: DIQMTQSPSSLSASVGDRVTITCQASQDISTFLHWYQQKPGKAPSVLIYGASDLKTGVPSRFSGSGSGTHFTLTISSLQPEDIATYYCQQYDHLPLTFGGGTKVEIK
4 | no binding (tested: 2 ng/µL) | PA12P3C01 (antibody, human IgG1, V domains shown, human IgG1) VH: QVQLVQSGAEVKKPGASVKVSCQASGYTFTRYDINWVRQATGQGLEWMGWLNPKSGDTGYAQKFQGRVTMTRDTSISTAYMELTSLTSDDTAVYYCARGVDANHWGQGSLVTVSS VL: DIVVTQSPDSLAVSLGERATINCKSSQSIFDTSSNKNYLAWFRQRPGQPPQLLIYWASTRESGVPDRFSGSGSGTDFTLTISSLQAEDVAVYYCHQYYSLPHAFGQGTKLEIK
5 | no binding (tested: 2 ng/µL) | PA11P1C04 (antibody, human IgG1, V domains shown, human IgG1) VH: QVQLQESGPGLVKPSETLSLTCTVSGGSISSYYWNWIRQPPGKGLEWIGYIYYSGSTNYNPSLKSRATISVDTSKNQFSLKLSSVTAADTAVYYCARANLFGVALRRVLGPFDYWGQGTLVTVSS VL: DIQMTQSPSSLSASVGDRVTIACRASQSIANYLNWYQQKPGKAPKLLIYAASNLQSGVPSRFSGSGSGTDFTLTISSLQPEDFATYYCQQSYSTPYTFGQGTKLEIK
6 | no binding (tested: 2 ng/µL) | PA11P1D11 (antibody, human IgG1, V domains shown, human IgG1) VH: QVELVESGGGVVQPGRSLRLSCVASGFTFSDYGMHWVRQAPGKGLEWVAVIWFDGSSKYYADSVKGRFTISRDDSKNTVFMQMNNVRVEDTAVYYCAREQWLGTEYFQNWGQGTLVTVSS VL: EIVMTQSPATLSLFPGERATLSCRASQSVAGNLAWYQQKPGQAPRLLIYEASTRATDIPARFSGSGSETEFTLTISSLQSEDFAVYYCQQYKKWLITFGQGTRLEIK
7 | no binding (tested: 2 ng/µL) | PA11P1F03 (antibody, human IgG1, V domains shown, human IgG1) VH: QVQLQQWGAGLLKPSETLSLNCTVYHGSLSTSYWSWIRQPPGRGLEWIGEINDSGATNYNPSLKSRVIISVDTSKDQFSLKLTSVTAADTAMYYCARAPLLWVGESFFYYFDSWGQGILVTVSS VL: DIQMTQSPSSLSASVGDRVSITCRAGQSIDTYLNWYQHKPGKAPDLLIYTTSTLHSGVPSRFSGSGSGTDFTLTITSLQPEDFAIYYCQQSYKSPYTFGQGTKVEIK
8 | no binding (tested: 2 ng/µL) | PA12P3E04 (antibody, human IgG1, V domains shown, human IgG1) VH: EVKVVESGGGLVQPGGSLRLSCAASEFTFTYYWMSWIRQAPGKGLEWVANVNGDATEKYYVDSVKGRFTISRDNPKKTVYLQMNSLRVEDTAVYYCARVGTTVVNDGFDLWGLGTMVTVSS VL: SYVLTQSHSVSVAPGQTARITCGGENIGGKGVHWYQQKPGQAPLLVVSSDTGRRSVTPDRFSGSNSGDTATLIISRVEAGDEADYYCQVWDPTSEYVFGSGTKVTVL
9 | no binding (tested: 2 ng/µL) | PA14P3H08 (antibody, human IgG1, V domains shown, human IgG1) VH: QVQLVESGGGVVQPGRSLTLSCAASGFNFKTYGMHWVRQAPGKGLEWVAVIYHDGNDKFYADSVKGRFTISRDNSKNTLYVQMSSLRADDTAIYYCAKGIFSSGYHYGMDVWGQGTAVIVSS VL: DIQMTQSPSSLSASLGDSVTITCLASQGIKEFLSWFQQKPGQAPKLLIYDASSSHSGVPSRFSGSGSATHFTLTISSLQPDDIATYYCQQYHQVPLTFGQGTRLEIK
10 | no binding (tested: 2 ng/µL) | PA11P1E01 (antibody, human IgG1, V domains shown, human IgG1) VH: QVQLVQSGSELRRPGASVKVSCKTSGYAFTHFAMNWLRQAPGQGLEWLGWINTHSGNPTYAQGFTGRIVFSLDTSAGTAYLEISSLKAEDTAVYYCARERYFDFWGQGTLVAVSS VL: QSVLTQPPSASGTPGQRVTISCSGTNSNIGKNFLYWYQQLPGTAPKLLIFSSNQRPSGVPDRFSGSKSGTSASLAISGLRSEDEADYYCAAWDDNLSGWVFGGGTKVTVL
11 | no binding (tested: 2 ng/µL) | PA11P1C11 (antibody, human IgG1, V domains shown, human IgG1) VH: QVQLVQSGSELRKPGASVKLSCRTSGYTFIHFAMNWLRQAPGQGLEWLGWINTHSGNPTYAQGFTGRFVFSLDVSAGTAYLEISGLKAEDTAVYYCARERYFDFWGQGALVAVSS VL: QSVLTQPPSASGTPGQRVTISCSGTSSNIGKNFLYWYQQVPGTAPKLLIYSSNQRPSGVPDRFSGSKSGTSASLAISGLRSEDEADYYCAAWDDSLSGWVFGGGTKVTVL
12 | no binding (tested: 2 ng/µL) | PA11P1D12 (antibody, human IgG1, V domains shown, human IgG1) VH: QVQLRVSGPGLVNPSETLSLTCIVSGDSLRDYYWSWIRQSPGKGLEWIGYVTESGGAHYNPSLESRVTISVDASKTQFSLNLKSVTAADTAVYYCARDAYSSTWYTVGWFDPWGPGSLVTVSS VL: EIVLTQSPATLSLSPGERATLSCRASQDVGVYLAWYQQKPGQAPRLIIYDASDRVSGVPARFTGSGSGTDFTLTITSLEPEDFAVYFCQQRTSGLTFGGGTTLEIK
13 | no binding (tested: 2 ng/µL) | PA11P1G10 (antibody, human IgG1, V domains shown, human IgG1) VH: QVQLQESGPGLVKPSQTLSLTCTVSGGSINTGAYYWSWIRQHPGKGLEWIGYIYYSGSTYYNPSLKSRVTISKDTSKNQFSLRLTSVTAADTAVYYCVREKLTGAPDNWGQGTLVAVSS VL: DIQMTQSPSSLSASVGDRVTITCRASQGVSNYLAWFHQKPGKAPKSLIYAASTLHDGVPSSFSGSGSGTEFTLTISDLQPEHFGTYYCEQYNSYPFTFGPGTTVDFK
14 | no binding (tested: 2 ng/µL) | PA12P3E11 (antibody, human IgG1, V domains shown, human IgG1) VH: QVQLVESGGGLVTPGGSLRLSCTVSGFTLSDYYMSWIRQAPGKGLDWLSYISGSGDNKNYADSVRGRFTISRDNSKNSLYLQMNSLRAEDTAVYYCAREFPSGGYSPGVVLWGQGTLVTVSS VL: NFVLTQPHSVSESPGKTVTISCARSSGSIAGSFVQWYQQRPGSSPTTVIYEDTRRPSGVPDRFSGSIDSSSNSASLTISGLKTEDEADYYCQSYDSTNPWVFGGGTKLTVL
15 | no binding (tested: 2 ng/µL) | PA14P1D11 (antibody, human IgG1, V domains shown, subject PA14; also called Clone PA14P1D11) VH: EVQLLESGGGLVQPGGSLKLSCVASGFTFSSYAMMWVRQAPGKGLEWISSISSSGGSTYYADSVKGRFTISRDNSKNTLYLQMNSLRVEDTAVYYCAKSHCSTTSCPRAFYYYGMDVWGQGTTVTVSS VL: DIQMTQSPSSLSASVGDRVTITCRASQTITTYLNWYQQKPGKAPKLLIYAASSLQSGVPSRFSGSGSGTDFTLSLSSLQPEDSATYYCQQSYSTLGAFGGGTKVEIK
16 | no binding (tested: 2 ng/µL) | PA12P3E09 (antibody, human IgG1, V domains shown, human IgG1) VH: QVQLVQSGAEVKKPGSSVKVSCKASGGTFSSYSISWVRQAPGQGLEWMGGIIPIFGSGSYAQKFQGRVTITADKSTSTAYMELSSLSSDDTAVYYCARGESPSNFVYYGMDVWGQGTTVTVSS VL: DIVLTQSPLSLPVTPGEPASISCRSSHSLLHSNGYNHLDWYLQKPGQSPQLLIYLGSNRASGVPDRFSGSGSGTDFTLKISRVEAEDVGVYYCMQALLVTFGPGTKVDIK

target: T1, BSA; experiment: indirect ELISA heat map, hIgG subtracted; remark: another data set of the same source

Row | binding result | Binder
17 | no binding (tested: 2 ng/µL) | PA01P2A05 (antibody, V domains shown, subject PA01; also called Clone PA01P2A05) VH: QVQLQESGPGLVKPSQTLSLTCTVSGGSMRSGDYYWSWIRQPPGKGLEWIGYIYFTGSSYYNPSLKSRATISVDTSKNQFSLKLNSVTAADTAVYFCARGVDVDLTFFDCWGHGTLVTVSS VL: SYVLTQPPSVSLAPGKTARITCGGNNIGNKSVHWYQQKPGQAPVLVIYYDSDRPSGIPERFSGSNSGNTATLTINRVEAGDEADYHCQVWDSSTDHRVFGEGTKLTVL
18 | no binding (tested: 2 ng/µL) | PA01P2C05 (antibody, V domains shown, subject PA01; also called Clone PA01P2C05) VH: QLLLQESGPGLVKPSETLSLSCTVSAGSITSINYSWGWIRQPPGKGLEWIASVYFSGSIYYNPSLKSRVAISVDTSKNTFSLNLTSVTAADTAVYYCARLRLDTGRDSSGLSYREHFDYWAQGTLVTVSS VL: DIQMTQSPSTLSASVGDRVTITCRASQSIGMWLAWFQQKPGKAPKLLIYKASTLESGVPSRFSGSGSGTEFTLTINSLQPDDFATYYCQQYNSYLFTFGPGTKVDIK
19 | no binding (tested: 2 ng/µL) | PA01P2A12 (antibody, V domains shown, subject PA01; also called Clone PA01P2A12) VH: QVQLVQSGAEVKKPGASVMLSCKASGYIFTNSDINWVRQAPGQGPEWMGWMNPKSGNTGYEQKFQGRVTMTTNTSISTAYMELSRLRSEDTAVYYCARSTGAVAGNFDYWGQGTPVTVSS VL: EIVMTQSPATLSVSLGDRATLSCRASQSISRNLAWYQQKPGQAPRLLIYGASIRITDIPARFSGSGSGTEFTLTISSLQSEDFAIYFCQQYNNWRTFGQGTRVELK
20 | no binding (tested: 2 ng/µL) | PA01P2E06 (antibody, V domains shown, subject PA01; also called Clone PA01P2E06) VH: HVQLVQSGADVKKPGSSVKVSCKFSGGTFNNDSINWVRQAPGQGLEWMGVIMPFFGATRFAPKFQGRVTLTADKFTSTGYMELGSLKSDDTAVYYCARDKPPDDKWADYGMDVWGQGTTVTVSS VL: SYELTQPPSVSVSPGQTARITCSGDALPKQYVYWYQQKTGQAPVLVIYKDTERPSGIPERFSGSTSGTTVTLTISGVQADDEADYFCQSADRNANYRVFGGGTKLTVL
